Assay: soluble on expression in E. coli; label from the status in PepcDB or PDB records
For “MSLETRARNSTRPASGLIDWEQARQAALRLSQWEQAPVDNRAFRREQYARMVALSEPLIADYLGVRLPEPVSRIFVFDRREWLEANIVSFSQLFRPIEEMYEKNGGGRGALGVLMNDVSSKLLGVQIGGLLGYLAQRVLGQYDLSLLSAEATGGSLYFVEPNIARVQQQLGLSDEDFRLWITLHEMTHAFEFEAYPWVRTYFRELLEQNFALVSGQMLSSGNSLVDMLMRLLQGIGSGQHWIETVLTPEQRAVFDRIQALMSLIEGYGNHVMNAVGRRLLPSFNQIEQQIAQRQRQRTMLDQMVFRLTGLDLKLAQYQQGEAFVNAVVAARGIQFASRVWERPENLPSMDEIRNPGQWIVRMDREGHHHHHH”, the “soluble on expression in E. coli” value was “soluble”. With “MSLEVEVYRDPLSGFKDNKKSAPVKLNDEQQFALNQITAAIDKRKAETFLLEGITGSGKTEVYLHAISKALEQGRNALMLVPEISLTPQMVRQVKSRFGQAVAVLHSALSEGEKYDEWRRIRRGETRVVVGARSAVFAPLDNIGLIVIDEEHESSYKQETDPRYNARDVAIWRSKYHHCPLVLGSATPSLGSRARAQKNVYKLLRLTKRANNKKLPKVNLIDLKHVQFAGGQFDLSVNLVDAIKKRLDNKEQVILMLNRRGFANFMLCRECGFVLKCPNCDVSLNLHKDTNSMQCHYCGHTERVPSRCPNCQSSKIRFLGTGTQKVQEELEELLPGARILRMDVDTTRKKGSYKRILDSFGNHEADILLGTQMIAKGLDFPNVTLVGVINADTGLWLSDYNASEKTFELLTQVAGRAGRANKEGEVLIQTYNPEHYAIQLAQTQNYERFYGYEMNVRHAGNYPPYFFTVLISIAAKKEQNAAREAFRIKRYLSQHLHEEMIILGPTPSAISRVKNQYYYQILVKYKKEPNIKELLHHIQDSAQEAKKYGLNVFIDNEPEKIMEGHHHHHH” the “soluble on expression in E. coli” value was “not soluble”. For “MSLEVIKHDGPGRLGVIRLEPPVQTPALAGVDFTISPFNSYFNPKEYHDYDFNLAPSIPLSYYTPDEVIEKALKRIETVDYSKFNTFYFPALKRDKYYPRFVELIEENDFDAIYIGNSKVMIKDYRGFVATLRILREKFPNAVLITDLEPFFYPLAVYLGVDAFDVRSLKIYSYEGLGFTPFSPVIWDRPNDPIEFAREMIKIIKIAIQEGKLRYLVENFLPTVMNVGILRIADKEHGDYLEKYTPVHDKTVVFISEHSISRPEVFRWRKRIEERFEPPKGIDLLLIFPCSAKKPYSRSRSHMMYRKVMKEALGEKVHRVHELVVTSPYGVVPREWEWLAKYDIVVTGHWSESEVRFAGELLAQTIEKYPDIPIVAHVEGGYREAVKYAMELVNRDVIFTAVGSSTISKESLDKLKKTLKEFDLRDEGHHHHHH”, the “soluble on expression in E. coli” value was “not soluble”. With “MSLEVPLLEVLLYTDGSVTRILERFFEEVTIDPLETRKLKVEGREARLLGVPDGDTVYVRRVVIKVDGRPAILATSLARPDNLPGRLRRLVLQSRKPLGKMIEELRLETRREILRVEEARPSPEDEEILDVSVPKIPWREYLVYHRRTPMLLIRERFNPEVLGREGEGHHHHHH” the “soluble on expression in E. coli” value was “not soluble”. With “MSLFFGFTSCLDICPSTLTILGQAEKHRENLPETQRPQVLFVSINPDRDSPLRLSGYARAFHKNILTTTADTPALQRFATALGLRFRKVPGKSYAENPLDDTMDHPTAIVVLDPQGHHVGMIHPPFNAEEIPTDLQKLTKEITEGHHHHHH” the “soluble on expression in E. coli” value was “not soluble”. With “MSLGDEGWQTVIGLEIHAQIKTGKKLFSKASTSYGHVPNTNVDVHDAAFPGTLPVLDINAIRLSIMTALALNCQINPRSTFDRKHYFYHDIPASYQITQHYNPLAWNGHLEIREGDNGSKRTFNIGIKQLQVEQDTAKSQTVGDAVLVDLNRAGTGLMEIVTDPDMRSPEEAGAFVKKLQGLLRRVGSADGDMEKGNLRVDVNVSVHRPGMPFGTRCEIKNINSVRFLQAAIESERQRHIAHYCTSPLEPLAQETRGFNELTLQTYSLRSKEEATDYRYMPDHNLPAIIIDDGYLDSLWKNLPEMPWQSVERLVKTYGVTKRDAETLLGLDEYSAQGIAYFEEVVEQDKKIAKKATNWIAHELLGQLGKAIRPWTPTIVPAPLMHELVTAVESREITGTTGKAIVKHFVSLPESASLPPSFAELLAELGLTPSAASVEDLTETCKKAMNNQPKAVADFKKGNEKVVMRLVGEVMKLSGGKADAMKAKDILLDLLKDEGHHHHHH” the “soluble on expression in E. coli” value was “not soluble”. For “MSLGELNVATVTRRPEILLVDSQEVILQRLQQLLSPLPYTLHFARDATQALQLLASREVDLVISAAHLPQMDGPTLLARIHQQYPSTTRILLTGDPDLKLIAKAINEGEIYRYLSKPWDDQELLLALRQALEHQHSERERLRLQDLAQQQNAELKALNTLLEKRVAARTSELQQTADMLDLAYEELKPSYATGAELFSLLVNQRLPADKQTNRRIIELVRAYCKVQGIDPGAQRDLAMAAALHNIGKLSWSDSMMTSPADLLHHHQRERYRAYPAQSESLLMTLEPVQDAARLIRHHQEHWDGSGFPDHLKGDAIPLGSRLLKLAVDFIELQCGLILERHMNSDEALVFIRKYAGRLYDPDLVEGFIQVCAVYLSDVTLGDPSVKVLSTRELAAGMILARNLNADNGMLLLNAGKVLNLPLVDKLIAFETMEGARYSVFVKLPQEQQARAEGHHHHHH”, the “soluble on expression in E. coli” value was “not soluble”. In the case of “MSLGEQTTISDSKGLFHKEFPYVIPPVYRKVLDEYLVELNLLSNQSNFKIDTIFSYGLIISFERFTVGYEPDSHISKILESLCNSCNIDIKAIKEYSNNIKKLINEKGIKEIINILTAEIKKSVGGIALSNQSGKDKYYSRLHAIGIYELISNINEDKKEGDDKEIISECVEALGFSKDRVEKDINQYKNSMEKIKEMMELIKLTVEETKRKAKLNEGHHHHHH”, the “soluble on expression in E. coli” value is reported as “soluble”. In the case of “MSLGGELSLQIINKNPYKLYMDIKGFGFKTVDSIALSMGIEPDSNFRTKAAILYCLEQKEQNGDTYAFIEDIHQQVEKLLNIKINDIKNYLDKEYYYFDVLRLAKRTTWETEKDISVRLKEKINNSQKLFTNNVIHLIPEIERILRIKYDDKQKELFYKINENNILVLTGFAGTGKSSVLNGLLNLFDKKNITYKLMSPTAKAAKRMEECTGKKASTIHRALGLAEGKFLVNEKNPFAEDVIIIDETSMVDIYLFLAVLKGIKNTTKLLCLGDYGQLESISAGNVLFDMIQGGIPCVKLEKIFRQKEDSSLLNVITNIRNGDNPLKNTHKTYLELGRDCKFWLGKKEQTLSRVLLCYKECLKHFSREDIMVLCPMKKGNSGVNKLNQELQKIANSQNTEELKLKDCAYKKEDLVMHIKNDYNANIFSEDCKDTIAKGIFNGDAGKIEKIDLENQKLYVSYDSGIVEYDNSNLNELMLSYALTIHKVQGSQSKVVIVALDMSHYKMLKRSLLYTAASRCVELLIFICDPKAFSIALNNNQVTHKNTFLGELLKISEGHHHHHH”, the “soluble on expression in E. coli” value is reported as “soluble”. For “MSLGGSAMYHAQLGREYHEKALKYRSLAMRSLAHSGTSHSLDLHGATVREAKTIVRERVAAWWAKEADTSPNSIRPFVIVTGRGNHSIGLEARLLPAIVRLLQQDHWRFDAEHGQITVYGINRHSKEGHHHHHH”, the “soluble on expression in E. coli” value was “soluble”. For “MSLGNPTSINPGGSSTTTGMAFNEENGFQVSDYAGQPEGPNLVYIEGGRTVLGSFEEDLMKNGDNVERTVTVASFYMDETEIANIHWLEYLFYVQRDSSQEFYESALPDTTVWASELAYNDPYVDHYFRYPGFRYFPVVGVNWIQANDYCIWRTTVVNNQLAQNAGIDVPEGGGRIPLESGVVLPNYRLPSEAEWEYAAQALIGNQWLDENQTHKRLYPWDGHALRNPYGKQMGMFLANFKRGRGDYAGIAGKLNDGAMITTYIYEFPPNDFGLYCMAGNVNEWVYDVYRPLSFQTFDDLNPLRRNGFLDEEKGYDKAGFQSLVDDHVRVYKGGSWKDVAYWMSPGTRRYLAEDSCTATIGFRCAMIQAGTEGHHHHHH”, the “soluble on expression in E. coli” value was “soluble”. With “MSLGPMRDLTWGQINFIHTTDTHGWIGGHLQEPQYSADWGDYISFTKHMRDQADKRGSDLLVIDTGDRIEGNGLYDASTPKGLFQYDIYAEADVDIMSTGNHELYKAYSADMEHNTTVPNYKNSYLASNLDYISFETGDRVPQAPRYKKFKTKNQGLNIVAFGFLFDFTGNANNTVVQPVEDTIKEDWFQEAIHEKPDLFVVIGHVGLRMEEFKVIYTAIRKQNWHIPIAFFGGHAHVRDTVQYDSKALAIASGRYFETIGWMSIDGIKKGGAKDVEAAASPTEGHHHHHH” the “soluble on expression in E. coli” value was “soluble”. With “MSLGQTTLACSFRSLTNPYYTAFNKGAQSFAKSVGLPYVPLTTEGSSEKGIADIRALLQKTGGNLVLNVDPNDSADARVIVEACSKAGAYVTTIWNKPKDLHPWDYNPNYVAHLSYDGVAYGEETATQLFKSMGGKGGVVALGGIFSNVPAIERKAGLDAALKKFPGIQLLDFQVADWNSQKAFPIMQAWMTRFNSKIKGVWAANDDMALGAIEALRAEGLAGQIPVTGMDGTQPGLVAIKSGELVASVDWDPFWLGGIGLSMGLQAKEKKIDLATLPKDRRESFCTATFVTKTNVQDVIARAASPKAEWNNLYARVAGPVVYREGHHHHHH” the “soluble on expression in E. coli” value was “soluble”. For “MSLGQVFYYQPEQVHLSFGESPLEIVVTWSTMTATNESIVEYGIGGLILSATGTETKFVDGGPAKRTQYIHRVVLRDLQPSSRYEYHCGSRWGWSAEFYFHTTPAGTDWSPSLAIFGDMGNENAQSMARLQEDTQRHMYDAILHVGDFAYDMNTDDALVGDQFMNQIQSIAAYTPYMVCAGNHEEKYNFSNYRARFSMPGGTENIMYSFNLGPVHFIGFSTEVYYFMNYGLKPLVKQYEWLRRDLEEANRPENRKLRPWIVTYGHRPMYCSNDNDNDCTHSETLVRVGLPFMHWFGLEDLFYEHGVDVEIWAHEHSYERLFPIYDYKVYNGSYEEPYRNPRAPVHLVTGSAGCKEGREPFINKIPTWSAIHSRDYGYTRMKAINGSHLYFEQISVDKEGAVIDSFTIIKDEGHHHHHH”, the “soluble on expression in E. coli” value was “soluble”. For “MSLGQVGVGRVLQRYIILKGRNSEHLFVAAESLIAIDRLPAAIITRLTQTNDPLGEVMAASHIETFKEEAKVWVGDLPGWLALHGYQNSRKRAVARRYRVISGGQPIMVVTEHFLRSVFRDEGHHHHHH”, the “soluble on expression in E. coli” value was “not soluble”. For “MSLGSGHMIGVDVGETRVRVELFDLSLAELARTERPLAHKGRQAYDVGVIVGHIRDGVAEVLAAAGITAGELLGVGIGVPGIVERSGEGGAVVHGQTIGWDAVPLEHMLRLSGQLPEHVPYFIDNGAKTLGQAEMWFGAGRGAHNAVVVLFGSGVGACVVTDEVEHGRAVEWGHLTVRVQGRRCRCGALGCLEAYAGAEALLARWQEAGGQPPYDTDEETALTAMLAAAYPEDGRAPDPVAAAVLAETAEYLGAGLSDLINLFQPERILVGGWAGLQLGSRFLESVRTHALAYALRYPAGRVGIELGRLGPDAVTVGAAILPLADFFAHGGRRAEGHHHHHH”, the “soluble on expression in E. coli” value was “soluble”. For “MSLGTLKLFNIGNMVTYSMNESSMISSKGMEILISDGKIIEIGPKVGDADQLFDCENKLVTPGFVDCHTHPVFLDGRENEFEMRLKGFSYEEIANEGGGIKNSVKSVRNSSEVELYNRVISRMDKFLKLGTTTIEAKSGYGLDINSELKSLKVIHEVNLAHQIDILPTFMGAHAVPNEYADDIDSYVDLICDSMIPQVAEQGIAIFNDVFCEKGYFNLKQSERILKKGLDYGLLPRIHSDEFNNLGASKLAGKLNLISADHLMKIEKDDIEIMADSNTKAVLLPGTTFFLGHSNYAPYHKLKEAGIEVAIASDYNPEGHHHHHH”, the “soluble on expression in E. coli” value was “soluble”. In the case of “MSLGTQEDVLSLISGGFDSGVSSYLHIKRGSKVHYCFFNLGGPAHEIGVKQTAYYLWQKYGSSAKVRFIAIDFAPVVAEILEKIDDGQMGVVLKRMFMRTAGMVAEKFGIQALVTGEALGQVSSQTLTNLRHIDNVTDTLILRPLINWDKEDIIRLAREIGTEDFAKTMPEFCGVISKSPTVKAVKEKLEEEEAKFDFALLDQVVYNARQIDIRDIGKESLEKAPEVELVNSAEEGNAVVLDIRSPDEEDESPLEIVGVEVKHLPFYKLATQFGDLDQSKTYLLYCSRGVMSRLQALYLQEQGFNNVKVYREGHHHHHH”, the “soluble on expression in E. coli” value is reported as “not soluble”.
